Numbered stars: 1 amine (or outer) side, 2 acyl side, 3 side chain; on linkers, the order of the positions; unused ones are H or OH. Bridge positions count the residues as written; N and C are the ends. TRITC = tetramethylrhodamine dye; Cysteamine = C(CS[*:2])N[*:1]; Ahx = NCCCCCC(=O)O
How the values were obtained:
[1] = target: T1, PDI (Homo sapiens, UniProt P07237); assay: LC-MS analysis of conversion of TRITC-Tn6-MDS to cyclized form; assay type: biochemical
Experimental: This mixed disulfide (MDS) probe, denoted as TRITC-Tn6-MDS, was then tested to determine whether it could be recognized as a substrate by PDI. Conversion of the probe from the mixed-disulfide (MDS) form to the cyclized form was followed by LC-MS under three sets of reaction conditions (PDI alone; DTT alone; and PDI+DTT). The assay buffer for these experiments was 50 mM TRIS, 100 mM NaCl, 2 mM CaCl, and 0.1% Triton X-100.

[2] = target: T1, PDI; assay: Real-time fluorescence anisotropy assay of TRITC-Tn6-MDS activation in presence of DD(E); assay type: biochemical; settings: only when both PDI and DTT are present simultaneously; 2 μM DD(E)
Experimental: These experiments were conducted in the same assay buffer as was used for the LC-MS experiment described above.

[3] = target: fibrin fragment DD(E) (Homo sapiens, UniProt P02671+P02675+P02679); assay: Direct binding to DD(E) by fluorescence anisotropy; settings: serial dilution of DD(E)
fibrin fragment DD(E), sequence (P02671 130-216): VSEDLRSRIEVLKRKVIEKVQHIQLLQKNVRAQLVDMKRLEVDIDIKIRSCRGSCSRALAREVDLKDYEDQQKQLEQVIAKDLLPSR
fibrin fragment DD(E), sequence (P02675 164-491): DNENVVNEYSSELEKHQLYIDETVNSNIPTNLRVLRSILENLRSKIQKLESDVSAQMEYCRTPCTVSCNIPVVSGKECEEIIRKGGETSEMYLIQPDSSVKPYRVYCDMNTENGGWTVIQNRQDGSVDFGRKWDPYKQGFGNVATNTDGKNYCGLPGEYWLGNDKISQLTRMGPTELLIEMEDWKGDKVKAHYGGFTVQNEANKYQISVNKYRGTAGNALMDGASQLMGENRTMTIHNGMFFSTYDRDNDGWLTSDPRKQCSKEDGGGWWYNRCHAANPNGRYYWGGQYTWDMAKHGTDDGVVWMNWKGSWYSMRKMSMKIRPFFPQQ
fibrin fragment DD(E), sequence (P02679 114-432): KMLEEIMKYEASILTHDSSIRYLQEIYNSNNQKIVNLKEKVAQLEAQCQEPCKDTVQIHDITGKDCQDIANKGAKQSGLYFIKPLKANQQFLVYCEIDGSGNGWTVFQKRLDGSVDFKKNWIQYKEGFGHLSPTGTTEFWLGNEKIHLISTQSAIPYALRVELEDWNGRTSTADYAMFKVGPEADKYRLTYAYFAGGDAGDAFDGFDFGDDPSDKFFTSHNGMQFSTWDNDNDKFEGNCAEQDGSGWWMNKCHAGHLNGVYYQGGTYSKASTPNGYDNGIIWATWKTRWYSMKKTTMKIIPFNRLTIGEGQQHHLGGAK
fibrin fragment DD(E), sequence (P02671 36-97): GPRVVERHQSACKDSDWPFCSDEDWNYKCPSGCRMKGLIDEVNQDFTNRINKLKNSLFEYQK
fibrin fragment DD(E), sequence (P02675 45-152): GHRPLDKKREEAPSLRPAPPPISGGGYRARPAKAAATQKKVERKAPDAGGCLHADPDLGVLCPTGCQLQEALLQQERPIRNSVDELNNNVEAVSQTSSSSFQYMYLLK
fibrin fragment DD(E), sequence (P02679 27-88): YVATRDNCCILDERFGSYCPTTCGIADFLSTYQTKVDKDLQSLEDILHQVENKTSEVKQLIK
Experimental: The binding constants of the TRITC-Tn6-MDS probe and its activated cyclic form were then measured with the fibrin fragment DD(E). A serial dilution of the DD(E) protein was prepared and then mixed with the two probes. […] Therefore, the disulfide linkage of this probe can act as a switch for binding.

[4] = target: DD(E) (soluble protein fragment of fibrin) (Homo sapiens, UniProt P02671+P02675+P02679); settings: known value used for the competition assay; read-out: dissociation constant (Kd) of the TRITC-Tn6 probe for DD(E), known value; cited from earlier work
DD(E) (soluble protein fragment of fibrin), sequence (P02671 130-216): as the sequence (P02671 130-216) above
DD(E) (soluble protein fragment of fibrin), sequence (P02675 164-491): as the sequence (P02675 164-491) above
DD(E) (soluble protein fragment of fibrin), sequence (P02679 114-432): as the sequence (P02679 114-432) above
DD(E) (soluble protein fragment of fibrin), sequence (P02671 36-97): as the sequence (P02671 36-97) above
DD(E) (soluble protein fragment of fibrin), sequence (P02675 45-152): as the sequence (P02675 45-152) above
DD(E) (soluble protein fragment of fibrin), sequence (P02679 27-88): as the sequence (P02679 27-88) above

T1 sequence (P07237 18-508, species assumed): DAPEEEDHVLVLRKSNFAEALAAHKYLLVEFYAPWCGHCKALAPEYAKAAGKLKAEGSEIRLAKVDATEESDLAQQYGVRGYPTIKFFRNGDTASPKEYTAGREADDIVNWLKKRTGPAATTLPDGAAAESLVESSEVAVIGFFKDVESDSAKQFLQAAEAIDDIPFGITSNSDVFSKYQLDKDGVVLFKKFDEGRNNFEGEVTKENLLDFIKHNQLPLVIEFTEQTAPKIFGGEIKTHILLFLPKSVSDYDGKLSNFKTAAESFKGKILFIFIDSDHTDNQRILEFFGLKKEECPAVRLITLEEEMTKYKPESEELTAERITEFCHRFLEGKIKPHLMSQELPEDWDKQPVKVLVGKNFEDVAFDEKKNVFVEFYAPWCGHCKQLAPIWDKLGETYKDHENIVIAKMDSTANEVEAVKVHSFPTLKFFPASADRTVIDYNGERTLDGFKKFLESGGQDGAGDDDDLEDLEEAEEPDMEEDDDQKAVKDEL

TRITCAha -QWECPYGLCWIQ-NH2 ({TRITC-Ahx}-QWEC(Cysteamine)PYGLC(Cysteamine)WIQ-NH2) [TRITC-Tn6-MDS, linear optical probe; N-terminal tetramethylrhodamine via 6-aminohexanoic acid linker; two cysteines protected as mixed disulfides with cystamine]
conversion of mixed-disulfide form to cyclized form ([1]; PDI alone): does not promote cyclization
conversion of mixed-disulfide form to cyclized form ([1]; PDI in the presence of DTT, compared to DTT alone): rapid conversion
activation of the probe (cyclization and binding to DD(E)) [2]: efficiently activated
Kd for DD(E) relative to that of the cyclic form [3]: roughly 20 fold

TRITC-Tn6: fluorescent peptide structurally similar to EP-2104R that binds the same site on DD(E) ({TRITC-Ahx}-QWECPYGLCWIQ-NH2; disulfide 4-9 (inferred))
Kd [4]: 510 nM

Source: US10471163B2, “Activatable fibrin-binding probes” (priority 2013, dated 2019)
